From patent US20110144037A1 (BOARD OF REGENTS OF THE UNIVERSITY OF OKLAHOMA, published 2011)
Where no end group is shown, it is not given here. [ ]: non-standard residue; d: D form. Pip = O=C(O)[C@@H]1CCCCN1; AEEA = NCCOCCOCC(=O)O

B1: FRQLTS-G pipecolinyl-NQEQV (peptide)
peptide: FRQLTSG[Pip]NQEQV-OH
modifications: N-terminus assumed
SMILES: CC(C)C[C@H](NC(=O)[C@H](CCC(N)=O)NC(=O)[C@H](CCCNC(=N)N)NC(=O)[C@@H](N)Cc1ccccc1)C(=O)N[C@H](C(=O)N[C@@H](CO)C(=O)NCC(=O)N1CCCC[C@H]1C(=O)N[C@@H](CC(N)=O)C(=O)N[C@@H](CCC(N)=O)C(=O)N[C@@H](CCC(=O)O)C(=O)N[C@@H](CCC(N)=O)C(=O)N[C@H](C(=O)O)C(C)C)[C@@H](C)O
B2: FR-peg-G-pipecolinyl-NQEQV (peptide)
peptide: FR[AEEA]G[Pip]NQEQV-OH
modifications: N-terminus assumed
SMILES: CC(C)[C@H](NC(=O)[C@H](CCC(N)=O)NC(=O)[C@H](CCC(=O)O)NC(=O)[C@H](CCC(N)=O)NC(=O)[C@H](CC(N)=O)NC(=O)[C@@H]1CCCCN1C(=O)CNC(=O)COCCOCCNC(=O)[C@H](CCCNC(=N)N)NC(=O)[C@@H](N)Cc1ccccc1)C(=O)O
B3: FG-peg-G-pipecolinyl-NQEQV (peptide)
peptide: FG[AEEA]G[Pip]NQEQV-OH
modifications: N-terminus assumed
SMILES: CC(C)[C@H](NC(=O)[C@H](CCC(N)=O)NC(=O)[C@H](CCC(=O)O)NC(=O)[C@H](CCC(N)=O)NC(=O)[C@H](CC(N)=O)NC(=O)[C@@H]1CCCCN1C(=O)CNC(=O)COCCOCCNC(=O)CNC(=O)[C@@H](N)Cc1ccccc1)C(=O)O
B4: FR-peg-G-pipecolinyl-NQGQV (peptide)
peptide: FR[AEEA]G[Pip]NQGQV-OH
modifications: N-terminus assumed
SMILES: CC(C)[C@H](NC(=O)[C@H](CCC(N)=O)NC(=O)CNC(=O)[C@H](CCC(N)=O)NC(=O)[C@H](CC(N)=O)NC(=O)[C@@H]1CCCCN1C(=O)CNC(=O)COCCOCCNC(=O)[C@H](CCCNC(=N)N)NC(=O)[C@@H](N)Cc1ccccc1)C(=O)O

Experiments:
[1] = molecular target: dipeptidyl peptidase IV (DPPIV); test: ratio of Ki for DPPIV to Ki for APCE/FAP
dipeptidyl peptidase IV (DPPIV), sequence (P27487 29-766): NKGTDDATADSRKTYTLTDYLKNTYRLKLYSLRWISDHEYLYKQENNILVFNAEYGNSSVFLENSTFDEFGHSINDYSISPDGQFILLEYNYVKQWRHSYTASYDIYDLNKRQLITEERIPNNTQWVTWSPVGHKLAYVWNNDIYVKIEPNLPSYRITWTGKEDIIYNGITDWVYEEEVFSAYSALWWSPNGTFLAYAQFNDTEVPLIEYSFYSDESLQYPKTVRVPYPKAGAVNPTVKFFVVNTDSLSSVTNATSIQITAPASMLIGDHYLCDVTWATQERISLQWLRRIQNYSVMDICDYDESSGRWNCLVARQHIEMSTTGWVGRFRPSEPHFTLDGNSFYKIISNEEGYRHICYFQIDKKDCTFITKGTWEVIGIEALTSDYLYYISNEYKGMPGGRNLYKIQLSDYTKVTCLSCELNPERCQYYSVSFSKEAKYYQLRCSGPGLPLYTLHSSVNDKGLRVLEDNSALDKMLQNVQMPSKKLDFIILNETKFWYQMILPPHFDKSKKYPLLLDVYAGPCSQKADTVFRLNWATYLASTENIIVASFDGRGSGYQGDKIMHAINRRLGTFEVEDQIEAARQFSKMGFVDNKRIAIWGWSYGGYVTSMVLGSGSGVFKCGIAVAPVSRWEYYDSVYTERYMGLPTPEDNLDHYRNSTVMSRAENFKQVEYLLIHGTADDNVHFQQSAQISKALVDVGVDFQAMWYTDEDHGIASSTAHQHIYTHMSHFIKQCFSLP

[2] = molecular target: T1, antiplasmin-cleaving enzyme (APCE) (human, UniProt Q12884 24-760, Natural plasma glycoprotein; glycans are not carried by the letters. The active enzyme is known as a homodimer; one chain is given.); test: inhibition of APCE activity, AMC fluorogenic substrate
T1 construct: The range 24-760 is derived from the statement that APCE lacks the first 23 residues of FAP; also called α2-antiplasmin cleaving enzyme; APCE/FAP
T1 sequence: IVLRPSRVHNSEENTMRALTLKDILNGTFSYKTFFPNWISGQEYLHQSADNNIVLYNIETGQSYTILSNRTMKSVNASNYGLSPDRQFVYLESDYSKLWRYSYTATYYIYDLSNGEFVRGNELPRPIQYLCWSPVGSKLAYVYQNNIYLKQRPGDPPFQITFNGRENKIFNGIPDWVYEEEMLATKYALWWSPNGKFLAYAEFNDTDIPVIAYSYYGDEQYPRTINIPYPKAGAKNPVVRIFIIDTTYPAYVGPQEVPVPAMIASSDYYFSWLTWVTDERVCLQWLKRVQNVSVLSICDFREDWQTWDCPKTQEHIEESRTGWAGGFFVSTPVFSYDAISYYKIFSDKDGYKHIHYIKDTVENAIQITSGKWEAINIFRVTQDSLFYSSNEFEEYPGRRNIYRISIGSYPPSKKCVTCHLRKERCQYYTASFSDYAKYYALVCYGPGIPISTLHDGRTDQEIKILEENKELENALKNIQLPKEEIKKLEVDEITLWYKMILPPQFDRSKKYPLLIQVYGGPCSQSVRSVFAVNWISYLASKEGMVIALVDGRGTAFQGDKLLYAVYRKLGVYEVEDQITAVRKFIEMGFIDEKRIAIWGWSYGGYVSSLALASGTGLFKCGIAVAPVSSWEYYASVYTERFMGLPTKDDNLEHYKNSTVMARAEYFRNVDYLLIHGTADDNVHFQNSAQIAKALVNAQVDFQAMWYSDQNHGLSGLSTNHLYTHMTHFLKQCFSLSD

[3] = molecular target: dipeptidyl peptidase IV (DPPIV); test: inhibition of DPPIV activity, AMC fluorogenic substrate
[4] = molecular target: T1, antiplasmin-cleaving enzyme (APCE); test: inhibition of APCE activity, AMC fluorogenic substrate, competitive fit
Protocol: Enzyme assays. APCE or DDPIV was incubated in 25 mM sodium phosphate buffer, pH 7.5, containing 1.0 mM EDTA and 4% methanol in a total volume of 200 μl for 20 min at 22° C., using fluorescent substrates […]-AMC (SEQ ID NO.:4) (12.5-100 μM); […]-AMC (SEQ ID NO.:5) (12.5-100 μM); Z-Gly-Pro-AMC (25-200 μM); or GP-AMC (62.5-1000 μM). […] Fluorescence was monitored with time at excitation and emission wavelengths of 360 and 460 nm using a black-sided, 96-well plate in a BIO-TEK FL600 fluorescence plate reader. For standard curves, dilutions of AMC (7-amino-4-methylcoumarin) were prepared in the same assay buffer and corresponding fluorescence was measured. The substrates in five different concentrations were mixed with four different concentrations of inhibitors around the expected Ki values; the enzyme was added and enzymatically released AMC fluorescence was recorded. Competitive inhibition was established by Lineweaver-Burk plot. Therefore, enzyme kinetic parameters were computed by fitting data to the following equation, employing the program PRISM, GraphPad: […]

Row | Molecule | Selectivity, Ki (DPPIV)/Ki (APCE/FAP) [1] | Ki [2] | Ki [3] | Ki [4]
1 | Ac-Arg-peg-D-Asp-L-boroPro (peptide) | 5.2 | 1380 nM | 7130 nM | –
2 | Ac-Arg-(8-amino-3,6-dioxaoctanoyl)-D-Ala-L-boroPro (peptide) | 1080 | 5.7 nM | 6130 nM | –
3 | Ac-Arg-peg-D-Ala-DL(75:25%)-boroPro (peptide) | – | 18.3 nM | – | –
4 | Ac-Arg-peg-Ser-Gly-L-boroPro (peptide) | 319 | 2.7 nM | 861 nM | –
5 | Ac-Arg-peg-Gly-DL-boroPro (peptide) | 371 | 3.1 nM | 1150 nM | –
6 | FR-peg-G-pyrrolidide (peptide) | – | – | – | 67700 nM
7 | Ac-Arg-peg-Gly-L-boroPro (peptide) | 244 | 1.8 nM | 440 nM | –
8 | Ac-Arg-peg-D-Ala-DL(25:75%)-boroPro (peptide) | – | 7.7 nM | – | –
9 | FG-peg-G-pyrrolidide (peptide) | – | – | – | 703000 nM
10 | Ac-Arg-peg-D-Ala-DL(50:50%)-boroPro (peptide) | 1180 | 9.5 nM | 11200 nM | –
11 | FR-peg-G-[s]fluoropyrrolidide (peptide) | – | – | – | 55300 nM
12 | FR-peg-G-piperidide (peptide) | – | – | – | 264000 nM
13 | Ac-Arg-peg-D-Ala-D-boroPro (peptide) | 108 | 189 nM | 20500 nM | –
14 | Ac-Arg-Gly-Gly-L-boroPro (peptide) | 18.7 | 17.2 nM | 322 nM | –
15 | Ac-Arg-Gly-Gly-DL-boroPro (peptide) | 14.9 | 22.9 nM | 341 nM | –
16 | FR-peg-G-[r]fluoropyrrolidide (peptide) | – | – | – | 53800 nM
17 | Ac-Gly-L-boroPro (peptide) | 15.2 | 20.7 nM | 314 nM | –
18 | B1 | – | – | – | 14000 nM
19 | B2 | – | – | – | 14800 nM
20 | B3 | – | – | – | 57100 nM
21 | B4 | – | – | – | 14500 nM
